According to US20150344540A1, “NOVEL GLP-1 RECEPTOR AGONISTS WITH CHOLESTEROL EFFLUX ACTIVITY” (NOVO NORDISK A/S, priority 2012, published 2015):
Where no end group is shown, it is not given here. [ ]: non-standard residue; d: D form. Aib = CC(C)(N)C(=O)O

Molecular target: human GLP-1 receptor (human, UniProt P43220)
Assay: cell-based or functional assay

B1: [Aib2,Glu21,Aib30,Leu31,Glu32,Phe33,Leu34,Glu35,Leu36,Leu37]-Exendin-4-(1-37)-peptide amide (peptide)
peptide: H[Aib]EGTFTSDLSKQMEEEAVREFIEWLKNG[Aib]LEFLELL-NH2
modifications: N-terminus assumed
SMILES: CC[C@H](C)[C@H](NC(=O)[C@H](Cc1ccccc1)NC(=O)[C@H](CCC(=O)O)NC(=O)[C@H](CCCNC(=N)N)NC(=O)[C@@H](NC(=O)[C@H](C)NC(=O)[C@H](CCC(=O)O)NC(=O)[C@H](CCC(=O)O)NC(=O)[C@H](CCC(=O)O)NC(=O)[C@H](CCSC)NC(=O)[C@H](CCC(N)=O)NC(=O)[C@H](CCCCN)NC(=O)[C@H](CO)NC(=O)[C@H](CC(C)C)NC(=O)[C@H](CC(=O)O)NC(=O)[C@H](CO)NC(=O)[C@@H](NC(=O)[C@H](Cc1ccccc1)NC(=O)[C@@H](NC(=O)CNC(=O)[C@H](CCC(=O)O)NC(=O)C(C)(C)NC(=O)[C@@H](N)Cc1c[nH]cn1)[C@@H](C)O)[C@@H](C)O)C(C)C)C(=O)N[C@@H](CCC(=O)O)C(=O)N[C@@H](Cc1c[nH]c2ccccc12)C(=O)N[C@@H](CC(C)C)C(=O)N[C@@H](CCCCN)C(=O)N[C@@H](CC(N)=O)C(=O)NCC(=O)NC(C)(C)C(=O)N[C@@H](CC(C)C)C(=O)N[C@@H](CCC(=O)O)C(=O)N[C@@H](Cc1ccccc1)C(=O)N[C@@H](CC(C)C)C(=O)N[C@@H](CCC(=O)O)C(=O)N[C@@H](CC(C)C)C(=O)N[C@@H](CC(C)C)C(N)=O
CRE luciferase EC50, 0% HSA: 0.067 nM | CRE luciferase EC50, 1% HSA: 0.032 nM

B2: [Asn14,Met16,Thr17,Asn18,Glu23,Val25,Glu34,Lys35,Gly36,Lys37]-GLP-1-(7-37)-peptidyl-Glu-Phe-Leu amide (peptide)
peptide: HAEGTFTNDMTNYLEGEAVKEFIAWLVEKGKEFL-NH2
CRE luciferase EC50, 0% HSA: 0.079 nM | CRE luciferase EC50, 1% HSA: 0.028 nM

B3: [Aib8,Glu23,Val25,Glu34,Aib36,Lys37]-GLP-1-(7-37)-peptidyl-Glu-Phe-Leu amide (peptide)
peptide: H[Aib]EGTFTSDVSSYLEGEAVKEFIAWLVEG[Aib]KEFL-NH2
modifications: N-terminus assumed
SMILES: CC[C@H](C)[C@H](NC(=O)[C@H](Cc1ccccc1)NC(=O)[C@H](CCC(=O)O)NC(=O)[C@H](CCCCN)NC(=O)[C@@H](NC(=O)[C@H](C)NC(=O)[C@H](CCC(=O)O)NC(=O)CNC(=O)[C@H](CCC(=O)O)NC(=O)[C@H](CC(C)C)NC(=O)[C@H](Cc1ccc(O)cc1)NC(=O)[C@H](CO)NC(=O)[C@H](CO)NC(=O)[C@@H](NC(=O)[C@H](CC(=O)O)NC(=O)[C@H](CO)NC(=O)[C@@H](NC(=O)[C@H](Cc1ccccc1)NC(=O)[C@@H](NC(=O)CNC(=O)[C@H](CCC(=O)O)NC(=O)C(C)(C)NC(=O)[C@@H](N)Cc1c[nH]cn1)[C@@H](C)O)[C@@H](C)O)C(C)C)C(C)C)C(=O)N[C@@H](C)C(=O)N[C@@H](Cc1c[nH]c2ccccc12)C(=O)N[C@@H](CC(C)C)C(=O)N[C@H](C(=O)N[C@@H](CCC(=O)O)C(=O)NCC(=O)NC(C)(C)C(=O)N[C@@H](CCCCN)C(=O)N[C@@H](CCC(=O)O)C(=O)N[C@@H](Cc1ccccc1)C(=O)N[C@@H](CC(C)C)C(N)=O)C(C)C
CRE luciferase EC50, 0% HSA: 0.034 nM | CRE luciferase EC50, 1% HSA: 0.013 nM

B4: [Aib8,Glu23,Val25,Glu34,Lys35,Leu36,Lys37]-GLP-1-(7-37)-peptidyl-Glu-Leu-Val amide (peptide)
peptide: H[Aib]EGTFTSDVSSYLEGEAVKEFIAWLVEKLKELV-NH2
modifications: N-terminus assumed
SMILES: CC[C@H](C)[C@H](NC(=O)[C@H](Cc1ccccc1)NC(=O)[C@H](CCC(=O)O)NC(=O)[C@H](CCCCN)NC(=O)[C@@H](NC(=O)[C@H](C)NC(=O)[C@H](CCC(=O)O)NC(=O)CNC(=O)[C@H](CCC(=O)O)NC(=O)[C@H](CC(C)C)NC(=O)[C@H](Cc1ccc(O)cc1)NC(=O)[C@H](CO)NC(=O)[C@H](CO)NC(=O)[C@@H](NC(=O)[C@H](CC(=O)O)NC(=O)[C@H](CO)NC(=O)[C@@H](NC(=O)[C@H](Cc1ccccc1)NC(=O)[C@@H](NC(=O)CNC(=O)[C@H](CCC(=O)O)NC(=O)C(C)(C)NC(=O)[C@@H](N)Cc1c[nH]cn1)[C@@H](C)O)[C@@H](C)O)C(C)C)C(C)C)C(=O)N[C@@H](C)C(=O)N[C@@H](Cc1c[nH]c2ccccc12)C(=O)N[C@@H](CC(C)C)C(=O)N[C@H](C(=O)N[C@@H](CCC(=O)O)C(=O)N[C@@H](CCCCN)C(=O)N[C@@H](CC(C)C)C(=O)N[C@@H](CCCCN)C(=O)N[C@@H](CCC(=O)O)C(=O)N[C@@H](CC(C)C)C(=O)N[C@H](C(N)=O)C(C)C)C(C)C
CRE luciferase EC50, 0% HSA: 0.155 nM | CRE luciferase EC50, 1% HSA: 0.082 nM

B5: [Aib8,Glu23,Val25,Glu34,Lys35,Aib36]-GLP-1-(7-37)-peptidyl-Glu-Phe-Leu amide (peptide)
peptide: H[Aib]EGTFTSDVSSYLEGEAVKEFIAWLVEK[Aib]GEFL-NH2
modifications: N-terminus assumed
SMILES: CC[C@H](C)[C@H](NC(=O)[C@H](Cc1ccccc1)NC(=O)[C@H](CCC(=O)O)NC(=O)[C@H](CCCCN)NC(=O)[C@@H](NC(=O)[C@H](C)NC(=O)[C@H](CCC(=O)O)NC(=O)CNC(=O)[C@H](CCC(=O)O)NC(=O)[C@H](CC(C)C)NC(=O)[C@H](Cc1ccc(O)cc1)NC(=O)[C@H](CO)NC(=O)[C@H](CO)NC(=O)[C@@H](NC(=O)[C@H](CC(=O)O)NC(=O)[C@H](CO)NC(=O)[C@@H](NC(=O)[C@H](Cc1ccccc1)NC(=O)[C@@H](NC(=O)CNC(=O)[C@H](CCC(=O)O)NC(=O)C(C)(C)NC(=O)[C@@H](N)Cc1c[nH]cn1)[C@@H](C)O)[C@@H](C)O)C(C)C)C(C)C)C(=O)N[C@@H](C)C(=O)N[C@@H](Cc1c[nH]c2ccccc12)C(=O)N[C@@H](CC(C)C)C(=O)N[C@H](C(=O)N[C@@H](CCC(=O)O)C(=O)N[C@@H](CCCCN)C(=O)NC(C)(C)C(=O)NCC(=O)N[C@@H](CCC(=O)O)C(=O)N[C@@H](Cc1ccccc1)C(=O)N[C@@H](CC(C)C)C(N)=O)C(C)C
CRE luciferase EC50, 0% HSA: 0.039 nM | CRE luciferase EC50, 1% HSA: 0.013 nM

B6: [Aib8,Glu23,Val25,Glu34,Lys35,Aib36,Lys37]-GLP-1-(7-37)-peptidyl-His-Phe-Leu amide (peptide)
peptide: H[Aib]EGTFTSDVSSYLEGEAVKEFIAWLVEK[Aib]KHFL-NH2
modifications: N-terminus assumed
SMILES: CC[C@H](C)[C@H](NC(=O)[C@H](Cc1ccccc1)NC(=O)[C@H](CCC(=O)O)NC(=O)[C@H](CCCCN)NC(=O)[C@@H](NC(=O)[C@H](C)NC(=O)[C@H](CCC(=O)O)NC(=O)CNC(=O)[C@H](CCC(=O)O)NC(=O)[C@H](CC(C)C)NC(=O)[C@H](Cc1ccc(O)cc1)NC(=O)[C@H](CO)NC(=O)[C@H](CO)NC(=O)[C@@H](NC(=O)[C@H](CC(=O)O)NC(=O)[C@H](CO)NC(=O)[C@@H](NC(=O)[C@H](Cc1ccccc1)NC(=O)[C@@H](NC(=O)CNC(=O)[C@H](CCC(=O)O)NC(=O)C(C)(C)NC(=O)[C@@H](N)Cc1c[nH]cn1)[C@@H](C)O)[C@@H](C)O)C(C)C)C(C)C)C(=O)N[C@@H](C)C(=O)N[C@@H](Cc1c[nH]c2ccccc12)C(=O)N[C@@H](CC(C)C)C(=O)N[C@H](C(=O)N[C@@H](CCC(=O)O)C(=O)N[C@@H](CCCCN)C(=O)NC(C)(C)C(=O)N[C@@H](CCCCN)C(=O)N[C@@H](Cc1c[nH]cn1)C(=O)N[C@@H](Cc1ccccc1)C(=O)N[C@@H](CC(C)C)C(N)=O)C(C)C
CRE luciferase EC50, 0% HSA: 0.205 nM | CRE luciferase EC50, 1% HSA: 0.062 nM

B7: [Aib8,Trp23,Val25,Glu34,Lys35,Aib36,Lys37]-GLP-1-(7-37)-peptidyl-Glu-Phe-Leu amide (peptide)
peptide: H[Aib]EGTFTSDVSSYLEGWAVKEFIAWLVEK[Aib]KEFL-NH2
modifications: N-terminus assumed
SMILES: CC[C@H](C)[C@H](NC(=O)[C@H](Cc1ccccc1)NC(=O)[C@H](CCC(=O)O)NC(=O)[C@H](CCCCN)NC(=O)[C@@H](NC(=O)[C@H](C)NC(=O)[C@H](Cc1c[nH]c2ccccc12)NC(=O)CNC(=O)[C@H](CCC(=O)O)NC(=O)[C@H](CC(C)C)NC(=O)[C@H](Cc1ccc(O)cc1)NC(=O)[C@H](CO)NC(=O)[C@H](CO)NC(=O)[C@@H](NC(=O)[C@H](CC(=O)O)NC(=O)[C@H](CO)NC(=O)[C@@H](NC(=O)[C@H](Cc1ccccc1)NC(=O)[C@@H](NC(=O)CNC(=O)[C@H](CCC(=O)O)NC(=O)C(C)(C)NC(=O)[C@@H](N)Cc1c[nH]cn1)[C@@H](C)O)[C@@H](C)O)C(C)C)C(C)C)C(=O)N[C@@H](C)C(=O)N[C@@H](Cc1c[nH]c2ccccc12)C(=O)N[C@@H](CC(C)C)C(=O)N[C@H](C(=O)N[C@@H](CCC(=O)O)C(=O)N[C@@H](CCCCN)C(=O)NC(C)(C)C(=O)N[C@@H](CCCCN)C(=O)N[C@@H](CCC(=O)O)C(=O)N[C@@H](Cc1ccccc1)C(=O)N[C@@H](CC(C)C)C(N)=O)C(C)C
CRE luciferase EC50, 0% HSA: 0.763 nM | CRE luciferase EC50, 1% HSA: 0.296 nM

B8: [Aib8,Glu23,Val25,Leu27,Glu34,Lys35,Aib36,Lys37]-GLP-1-(7-37)-peptidyl-Glu-Phe-Leu amide (peptide)
peptide: H[Aib]EGTFTSDVSSYLEGEAVKLFIAWLVEK[Aib]KEFL-NH2
modifications: N-terminus assumed
SMILES: CC[C@H](C)[C@H](NC(=O)[C@H](Cc1ccccc1)NC(=O)[C@H](CC(C)C)NC(=O)[C@H](CCCCN)NC(=O)[C@@H](NC(=O)[C@H](C)NC(=O)[C@H](CCC(=O)O)NC(=O)CNC(=O)[C@H](CCC(=O)O)NC(=O)[C@H](CC(C)C)NC(=O)[C@H](Cc1ccc(O)cc1)NC(=O)[C@H](CO)NC(=O)[C@H](CO)NC(=O)[C@@H](NC(=O)[C@H](CC(=O)O)NC(=O)[C@H](CO)NC(=O)[C@@H](NC(=O)[C@H](Cc1ccccc1)NC(=O)[C@@H](NC(=O)CNC(=O)[C@H](CCC(=O)O)NC(=O)C(C)(C)NC(=O)[C@@H](N)Cc1c[nH]cn1)[C@@H](C)O)[C@@H](C)O)C(C)C)C(C)C)C(=O)N[C@@H](C)C(=O)N[C@@H](Cc1c[nH]c2ccccc12)C(=O)N[C@@H](CC(C)C)C(=O)N[C@H](C(=O)N[C@@H](CCC(=O)O)C(=O)N[C@@H](CCCCN)C(=O)NC(C)(C)C(=O)N[C@@H](CCCCN)C(=O)N[C@@H](CCC(=O)O)C(=O)N[C@@H](Cc1ccccc1)C(=O)N[C@@H](CC(C)C)C(N)=O)C(C)C
CRE luciferase EC50, 0% HSA: 0.269 nM | CRE luciferase EC50, 1% HSA: 0.104 nM
